Assays:
[1] = molecular target: monkey PD-L1 protein on CHOK1 cell (monkey (cyno)); assay: FACS blocking assay: antibody titrated against Biotin-PD-1-mFc on CHOK1-cynoPD-L1 cells, SA488 detection
[2] = molecular target: human PD-L1 (Acro, Catalog Number: H5229) (human) (UniProt Q9NZQ7); assay: BLI, Octet RED96e, antibody on AHC sensor, antigen 100 nM, 1:1 fit
[3] = molecular target: human PD-L1 protein on HEK293 cell (human) (UniProt Q9NZQ7); assay: FACS blocking assay: antibody titrated against Biotin-PD-1-mFc on HEK293-hPD-L1 cells, SA488 detection
Sequence of human PD-L1 protein on HEK293 cell (human) (Q9NZQ7 19-290): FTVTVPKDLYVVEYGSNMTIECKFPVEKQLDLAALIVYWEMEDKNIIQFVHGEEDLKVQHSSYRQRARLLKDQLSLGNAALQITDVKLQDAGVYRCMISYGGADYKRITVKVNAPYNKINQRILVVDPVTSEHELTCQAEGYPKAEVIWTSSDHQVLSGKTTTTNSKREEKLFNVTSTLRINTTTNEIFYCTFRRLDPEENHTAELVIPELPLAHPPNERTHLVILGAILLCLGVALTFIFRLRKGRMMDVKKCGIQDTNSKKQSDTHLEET

Sequence of human PD-L1 (Acro, Catalog Number: H5229) (human) (Q9NZQ7 19-238 limits assumed): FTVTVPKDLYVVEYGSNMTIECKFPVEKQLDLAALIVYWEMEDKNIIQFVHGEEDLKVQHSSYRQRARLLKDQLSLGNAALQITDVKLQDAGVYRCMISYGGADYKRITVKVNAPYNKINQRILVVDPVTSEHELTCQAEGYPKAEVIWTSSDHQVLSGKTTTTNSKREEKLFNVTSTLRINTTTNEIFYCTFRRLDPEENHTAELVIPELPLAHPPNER

## Atezolimumab (antibody)
[1]
  IC50 (read off the curve): 0.9 µg/mL
[2]
  Kd: 0.484 nM
  koff: 0.000311 s⁻¹
  kon: 644000 M⁻¹ s⁻¹
[3]
  IC50 (read off the curve): 0.08 µg/mL

Reference: patent publication US20250277038A1
